Measured values as given in IntAct's records for PubMed 10531343.

B1: Synaptotagmin-9 (Mus musculus), Q9R0N9 (parent)
chain: MPGARDALCHQALQLLAELCARGALEHDSCQDFIYHLRDRARPRLRDPDISVSLLTLVVTACGLALFGVSLFVSWKLCWVPWRERGLFSGSKDNNQEPLNYTDTETNEQENSEDFLDPPTPCPDSSMKISHTSPDIPLSTQPGGQENCAHAVRVQRQVTEPTPSARHNSIRRQLNLSNPDFNIQQLQRQEQLTGIGRIKPELYKQRSLDNDDGRRSNSKACGKLNFILKYDCDLEQLIVKIHKAVNLPAKDFSGTSDPYVKIYLLPDRKTKHQTKVHRKTLNPVFDEVFLFPVHYNDLEARKLHFSVYDFDRFSRHDLIGQVVVDHFFDLADFPRECILWKDIEYVTNDNVDLGELMFSLCYLPTAGRLTITIIKARNLKAMDITGASDPYVKVSLMCDGRRLKKRKTSTKRNTLNPVYNEAIVFDVPPESIDQIHLSIAVMDYDRVGHNEVIGVCQVGNEAERLGRDHWSEMLSYPRKPIAHWHSLMEKR
partner: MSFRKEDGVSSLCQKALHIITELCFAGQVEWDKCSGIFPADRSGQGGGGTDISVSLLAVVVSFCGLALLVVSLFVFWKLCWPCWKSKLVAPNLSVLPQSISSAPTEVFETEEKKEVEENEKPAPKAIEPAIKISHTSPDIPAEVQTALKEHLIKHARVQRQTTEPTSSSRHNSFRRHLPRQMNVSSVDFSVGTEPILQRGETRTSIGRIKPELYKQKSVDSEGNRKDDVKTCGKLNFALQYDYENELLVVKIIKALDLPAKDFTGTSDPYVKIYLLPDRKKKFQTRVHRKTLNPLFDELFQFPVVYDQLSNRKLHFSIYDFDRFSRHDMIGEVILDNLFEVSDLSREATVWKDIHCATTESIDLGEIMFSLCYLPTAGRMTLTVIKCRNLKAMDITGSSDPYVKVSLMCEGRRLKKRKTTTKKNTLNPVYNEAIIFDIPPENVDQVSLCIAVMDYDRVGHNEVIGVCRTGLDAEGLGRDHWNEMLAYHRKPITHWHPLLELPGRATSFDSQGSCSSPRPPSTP
B2: Synaptotagmin-9 (Mus musculus), Q9R0N9 (parent)
chain: B1 chain
partner: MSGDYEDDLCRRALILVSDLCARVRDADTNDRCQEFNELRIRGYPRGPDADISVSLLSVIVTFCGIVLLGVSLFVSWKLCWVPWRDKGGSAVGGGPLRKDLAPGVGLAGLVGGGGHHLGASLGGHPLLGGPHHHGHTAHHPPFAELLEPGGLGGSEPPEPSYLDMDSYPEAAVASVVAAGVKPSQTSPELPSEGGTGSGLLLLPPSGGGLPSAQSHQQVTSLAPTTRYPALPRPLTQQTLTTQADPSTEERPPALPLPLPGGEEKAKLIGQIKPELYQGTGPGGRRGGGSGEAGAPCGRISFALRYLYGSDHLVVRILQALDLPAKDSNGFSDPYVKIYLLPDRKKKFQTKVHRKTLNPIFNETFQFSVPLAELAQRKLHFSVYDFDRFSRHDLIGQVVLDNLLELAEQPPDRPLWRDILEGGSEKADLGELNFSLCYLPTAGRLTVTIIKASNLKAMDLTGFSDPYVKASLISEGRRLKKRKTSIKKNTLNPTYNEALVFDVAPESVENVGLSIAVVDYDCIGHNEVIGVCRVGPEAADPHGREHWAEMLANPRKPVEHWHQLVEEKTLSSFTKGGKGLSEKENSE
B3: Synaptotagmin-10 (Mus musculus), Q9R0N4 (parent)
chain: B1 partner
partner: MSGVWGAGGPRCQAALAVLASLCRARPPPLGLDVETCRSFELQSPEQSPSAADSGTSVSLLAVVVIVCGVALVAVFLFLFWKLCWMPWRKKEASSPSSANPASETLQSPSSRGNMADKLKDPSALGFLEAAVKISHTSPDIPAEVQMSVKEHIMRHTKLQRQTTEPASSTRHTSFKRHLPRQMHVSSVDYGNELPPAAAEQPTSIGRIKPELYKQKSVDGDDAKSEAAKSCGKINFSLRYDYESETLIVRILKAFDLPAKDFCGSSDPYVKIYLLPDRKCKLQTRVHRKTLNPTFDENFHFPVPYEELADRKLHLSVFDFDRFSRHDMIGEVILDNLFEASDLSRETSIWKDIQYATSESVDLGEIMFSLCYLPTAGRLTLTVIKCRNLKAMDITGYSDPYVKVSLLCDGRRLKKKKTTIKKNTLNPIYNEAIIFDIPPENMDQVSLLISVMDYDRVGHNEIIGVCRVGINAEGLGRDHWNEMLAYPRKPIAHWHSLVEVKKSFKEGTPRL
B4: Synaptotagmin-6 (Mus musculus), Q9R0N8 (parent)
chain: B3 partner
partner: B2 partner
B5: Synaptotagmin-6 (Mus musculus), Q9R0N8 (parent)
chain: B3 partner
partner: B1 chain
B6: Synaptotagmin-3 (Mus musculus), O35681 (parent)
chain: B2 partner
partner: B1 partner

Variants of: B1
Settings: with syt10_mouse Syt10, Q9R0N4

Which “effect of a mutation on the interaction” value does the source give for MPGARDALAHQALQLLAELCARGALEHDSCQDFIYHLRDRARPRLRDPDISVSLLTLVVTACGLALFGVSLFVSWKLCWVPWRERGLFSGSKDNNQEPLNYTDTETNEQENSEDFLDPPTPCPDSSMKISHTSPDIPLSTQPGGQENCAHAVRVQRQVTEPTPSARHNSIRRQLNLSNPDFNIQQLQRQEQLTGIGRIKPELYKQRSLDNDDGRRSNSKACGKLNFILKYDCDLEQLIVKIHKAVNLPAKDFSGTSDPYVKIYLLPDRKTKHQTKVHRKTLNPVFDEVFLFPVHYNDLEARKLHFSVYDFDRFSRHDLIGQVVVDHFFDLADFPRECILWKDIEYVTNDNVDLGELMFSLCYLPTAGRLTITIIKARNLKAMDITGASDPYVKVSLMCDGRRLKKRKTSTKRNTLNPVYNEAIVFDVPPESIDQIHLSIAVMDYDRVGHNEVIGVCQVGNEAERLGRDHWSEMLSYPRKPIAHWHSLMEKR [C9A] here?
Its value is “decreasing interaction”.

Variants of: B2
Settings: with syt3_mouse Syt3, O35681

With MPGARDALAHQALQLLAELCARGALEHDSCQDFIYHLRDRARPRLRDPDISVSLLTLVVTACGLALFGVSLFVSWKLCWVPWRERGLFSGSKDNNQEPLNYTDTETNEQENSEDFLDPPTPCPDSSMKISHTSPDIPLSTQPGGQENCAHAVRVQRQVTEPTPSARHNSIRRQLNLSNPDFNIQQLQRQEQLTGIGRIKPELYKQRSLDNDDGRRSNSKACGKLNFILKYDCDLEQLIVKIHKAVNLPAKDFSGTSDPYVKIYLLPDRKTKHQTKVHRKTLNPVFDEVFLFPVHYNDLEARKLHFSVYDFDRFSRHDLIGQVVVDHFFDLADFPRECILWKDIEYVTNDNVDLGELMFSLCYLPTAGRLTITIIKARNLKAMDITGASDPYVKVSLMCDGRRLKKRKTSTKRNTLNPVYNEAIVFDVPPESIDQIHLSIAVMDYDRVGHNEVIGVCQVGNEAERLGRDHWSEMLSYPRKPIAHWHSLMEKR [C9A] as the variant, how does the “effect of a mutation on the interaction” value read?
The value was “decreasing interaction”.

Variants of: B3
Settings: with syt6_mouse Syt6, Q9R0N8

For MSFRKEDGVSSLAQKALHIITELCFAGQVEWDKCSGIFPADRSGQGGGGTDISVSLLAVVVSFCGLALLVVSLFVFWKLCWPCWKSKLVAPNLSVLPQSISSAPTEVFETEEKKEVEENEKPAPKAIEPAIKISHTSPDIPAEVQTALKEHLIKHARVQRQTTEPTSSSRHNSFRRHLPRQMNVSSVDFSVGTEPILQRGETRTSIGRIKPELYKQKSVDSEGNRKDDVKTCGKLNFALQYDYENELLVVKIIKALDLPAKDFTGTSDPYVKIYLLPDRKKKFQTRVHRKTLNPLFDELFQFPVVYDQLSNRKLHFSIYDFDRFSRHDMIGEVILDNLFEVSDLSREATVWKDIHCATTESIDLGEIMFSLCYLPTAGRMTLTVIKCRNLKAMDITGSSDPYVKVSLMCEGRRLKKRKTTTKKNTLNPVYNEAIIFDIPPENVDQVSLCIAVMDYDRVGHNEVIGVCRTGLDAEGLGRDHWNEMLAYHRKPITHWHPLLELPGRATSFDSQGSCSSPRPPSTP [C13A], which “effect of a mutation on the interaction” value is on record?
Its value is “decreasing interaction”.

Variants of: B4
Settings: with syt3_mouse Syt3, O35681

For MSGVWGAGGPRAQAALAVLASLCRARPPPLGLDVETCRSFELQSPEQSPSAADSGTSVSLLAVVVIVCGVALVAVFLFLFWKLCWMPWRKKEASSPSSANPASETLQSPSSRGNMADKLKDPSALGFLEAAVKISHTSPDIPAEVQMSVKEHIMRHTKLQRQTTEPASSTRHTSFKRHLPRQMHVSSVDYGNELPPAAAEQPTSIGRIKPELYKQKSVDGDDAKSEAAKSCGKINFSLRYDYESETLIVRILKAFDLPAKDFCGSSDPYVKIYLLPDRKCKLQTRVHRKTLNPTFDENFHFPVPYEELADRKLHLSVFDFDRFSRHDMIGEVILDNLFEASDLSRETSIWKDIQYATSESVDLGEIMFSLCYLPTAGRLTLTVIKCRNLKAMDITGYSDPYVKVSLLCDGRRLKKKKTTIKKNTLNPIYNEAIIFDIPPENMDQVSLLISVMDYDRVGHNEIIGVCRVGINAEGLGRDHWNEMLAYPRKPIAHWHSLVEVKKSFKEGTPRL [C12A], which “effect of a mutation on the interaction” value is on record?
Its value is “decreasing interaction”.

Variants of: B5
Settings: with syt9_mouse Syt9, Q9R0N9

For MSGVWGAGGPRAQAALAVLASLCRARPPPLGLDVETCRSFELQSPEQSPSAADSGTSVSLLAVVVIVCGVALVAVFLFLFWKLCWMPWRKKEASSPSSANPASETLQSPSSRGNMADKLKDPSALGFLEAAVKISHTSPDIPAEVQMSVKEHIMRHTKLQRQTTEPASSTRHTSFKRHLPRQMHVSSVDYGNELPPAAAEQPTSIGRIKPELYKQKSVDGDDAKSEAAKSCGKINFSLRYDYESETLIVRILKAFDLPAKDFCGSSDPYVKIYLLPDRKCKLQTRVHRKTLNPTFDENFHFPVPYEELADRKLHLSVFDFDRFSRHDMIGEVILDNLFEASDLSRETSIWKDIQYATSESVDLGEIMFSLCYLPTAGRLTLTVIKCRNLKAMDITGYSDPYVKVSLLCDGRRLKKKKTTIKKNTLNPIYNEAIIFDIPPENMDQVSLLISVMDYDRVGHNEIIGVCRVGINAEGLGRDHWNEMLAYPRKPIAHWHSLVEVKKSFKEGTPRL [C12A], which “effect of a mutation on the interaction” value is on record?
The value was “decreasing interaction”.

Variants of: B6
Settings: with syt10_mouse Syt10, Q9R0N4

Which “effect of a mutation on the interaction” value does the source give for MSGDYEDDLARRALILVSDLCARVRDADTNDRCQEFNELRIRGYPRGPDADISVSLLSVIVTFCGIVLLGVSLFVSWKLCWVPWRDKGGSAVGGGPLRKDLAPGVGLAGLVGGGGHHLGASLGGHPLLGGPHHHGHTAHHPPFAELLEPGGLGGSEPPEPSYLDMDSYPEAAVASVVAAGVKPSQTSPELPSEGGTGSGLLLLPPSGGGLPSAQSHQQVTSLAPTTRYPALPRPLTQQTLTTQADPSTEERPPALPLPLPGGEEKAKLIGQIKPELYQGTGPGGRRGGGSGEAGAPCGRISFALRYLYGSDHLVVRILQALDLPAKDSNGFSDPYVKIYLLPDRKKKFQTKVHRKTLNPIFNETFQFSVPLAELAQRKLHFSVYDFDRFSRHDLIGQVVLDNLLELAEQPPDRPLWRDILEGGSEKADLGELNFSLCYLPTAGRLTVTIIKASNLKAMDLTGFSDPYVKASLISEGRRLKKRKTSIKKNTLNPTYNEALVFDVAPESVENVGLSIAVVDYDCIGHNEVIGVCRVGPEAADPHGREHWAEMLANPRKPVEHWHQLVEEKTLSSFTKGGKGLSEKENSE [C10A] here?
The value was “decreasing interaction”.
